Assay results from patent US6495346.

Legend:
Assay in all cases: cell-based or functional assay
[1] = molecular target: LCK-Gal4 (UniProt P04386)
[2] = molecular target: m-fos-Gal4 (SV40)
[3] = molecular target: wt-fos-Gal4 (SV40)

m-jun-VP16, sequence (P06492 411-455, tags or fused parts left off): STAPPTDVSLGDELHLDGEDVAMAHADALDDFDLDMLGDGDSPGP
wt-jun-VP16, sequence (P06492 411-455, tags or fused parts left off): as above
CD4-VP16, sequence (P06492 whole entry): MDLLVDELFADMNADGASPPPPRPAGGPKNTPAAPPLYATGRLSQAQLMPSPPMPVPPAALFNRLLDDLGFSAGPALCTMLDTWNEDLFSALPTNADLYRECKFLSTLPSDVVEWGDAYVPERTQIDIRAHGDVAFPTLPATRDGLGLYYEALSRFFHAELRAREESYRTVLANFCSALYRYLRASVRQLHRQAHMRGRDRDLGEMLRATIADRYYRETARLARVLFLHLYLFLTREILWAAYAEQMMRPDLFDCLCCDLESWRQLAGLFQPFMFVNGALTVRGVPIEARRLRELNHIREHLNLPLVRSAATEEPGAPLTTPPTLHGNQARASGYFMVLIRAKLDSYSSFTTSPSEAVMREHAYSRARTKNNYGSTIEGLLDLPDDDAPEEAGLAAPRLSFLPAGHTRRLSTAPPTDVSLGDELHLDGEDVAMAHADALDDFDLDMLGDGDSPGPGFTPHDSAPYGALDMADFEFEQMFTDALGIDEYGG

Substance | Luciferase values (RLU), MeWo cells, G0/G1-synchronized cells, 10xBS Gal4-SV40 promoter (Tyr-LCK-Gal4-CycACD4-VP16) [1] [RLU] | Luciferase values (RLU), MeWo cells, proliferating cells, 10xBS Gal4-SV40 promoter (Tyr-LCK-Gal4-CycACD4-VP16) [1] [RLU] | Luciferase values (RLU), MeWo cells, G0/G1-synchronized cells, 10xBS Gal4-SV40 promoter [2] [RLU] | Luciferase values (RLU), MeWo cells, G0/G1-synchronized cells, 10xBS Gal4-SV40 promoter, both subunits on one plasmid (Tyr-m-fos-CycA-m-jun) [2] [RLU] | Luciferase values (RLU), MeWo cells, proliferating cells, 10xBS Gal4-SV40 promoter [2] [RLU] | Luciferase values (RLU), MeWo cells, proliferating cells, 10xBS Gal4-SV40 promoter, both subunits on one plasmid (Tyr-m-fos-CycA-m-jun) [2] [RLU] | Luciferase values (RLU), MeWo cells, G0/G1-synchronized cells, 10xBS Gal4-SV40 promoter [3] [RLU] | Luciferase values (RLU), MeWo cells, proliferating cells, 10xBS Gal4-SV40 promoter [3] [RLU]
CD4-VP16 (from UniProt P06492 406-488) | 5990 | 72400 | – | – | – | – | – | –
m-jun-VP16 (from UniProt P06492 411-455; P05412 276-312) | – | – | 271 | 12700 | 18300 | 1.02e+06 | 224 | 290
wt-jun-VP16 (from UniProt P06492 411-455; P05412 276-312) | – | – | 283 | – | 284 | – | – | –
